From patent publication US20240044881A1

Tests used:
[1] = target: Type I ClyA-CS nanopore (Salmonella typhi) (UniProt Q8Z727)
[2] = target: Type II ClyA-CS nanopore (Salmonella typhi) (UniProt Q8Z727)
[3] = target: Type I ClyA-CS nanopore (Salmonella typhi) (UniProt Q8Z727); experiment: single-channel current recording, planar lipid bilayer, -35 mV
[4] = target: Type II ClyA-CS nanopore (Salmonella typhi) (UniProt Q8Z727); experiment: as above
[5] = target: Type III ClyA-CS nanopore (Salmonella typhi) (UniProt Q8Z727); experiment: as above
[6] = target: Type I ClyA-CS nanopore (Salmonella typhi) (UniProt Q8Z727); experiment: single-channel current recording, planar lipid bilayer, -150 mV
[7] = target: Type II ClyA-CS nanopore (Salmonella typhi) (UniProt Q8Z727); experiment: as above

“human thrombin (from UniProt P00734 328-622) (enzyme)” showed an HT Dwell time at -150 mV [1] of 1 ms, an HT Dwell time at -150 mV [2] of 235 ms and an HT Level 1 at -35 mV, IRES % (residual current) [3] of 56%. For the same substance, the HT Level 2 at -35 mV, IRES % (residual current) [3] was 23%, the HT Occupancy of L2 at -35 mV, % [3] was 30% and the occupancy of the more superficial binding site (level 1) at -35 mV, % [3] was 70%. For the same substance, the HT Level 1 at -35 mV, IRES % (residual current) [4] was 68%, the HT Level 2 at -35 mV, IRES % (residual current) [4] was 31% and the HT Level 2 at -35 mV, IRES % (residual current) [5] was 32%. It also gave an HT Occupancy of L2 at -35 mV, % [5] of 100%, a duration of HT blockades at -35 mV [5] of 55 ms and an HT Level 2 (-150 mV), IRES, % (residual current) [6] of 23%. It also gave an HT Occupancy of L2 at -150 mV, % [6] of 100%, an HT Level 2 (-150 mV), IRES, % (residual current) [7] of 31% and an HT Occupancy of L2 at -150 mV, % [7] of 100%.
